According to patent publication US20240391954A1, “MC4R AGONIST PEPTIDES” (The Regents of the University of Michigan, priority 2021, published 2024):
Starred links: 1 amine or outer side, 2 acyl side, 3 side chain; linkers in the order of their positions; H or OH if unused. Positions of bridges follow the written chain, without caps; N, C: chain ends. Non-standard residues stand in square brackets, D forms with d. Primed or numbered codes have the meaning given here. dTyr(4-OMe) = O-methyl-D-tyrosine (4-OMe), COc1ccc(C[C@@H](N[*:1])C(=O)[*:2])cc1; dTyr(4-OMe)″ = O-methyl-D-tyrosine, COc1ccc(C[C@@H](N[*:1])C(=O)[*:2])cc1; dDip = N[C@@H](C(=O)O)C(c1ccccc1)c1ccccc1; dPhe(4-Br) = N[C@H](Cc1ccc(Br)cc1)C(=O)O; d2Nal = N[C@H](Cc1ccc2ccccc2c1)C(=O)O; d(αMeF) = C[C@@](N)(Cc1ccccc1)C(=O)O; dNMeF = CN[C@H](Cc1ccccc1)C(=O)O; dTic = O=C(O)[C@H]1Cc2ccccc2CN1; Cit = NC(=O)NCCC[C@H](N)C(=O)O; Nle = CCCC[C@H](N)C(=O)O; Aib = CC(C)(N)C(=O)O

How the values were obtained:
Test in all cases: cell-based or functional assay
human MC3R = human MC3R (human, UniProt P41968 1-323)
Chain of human MC3R (P41968 whole entry): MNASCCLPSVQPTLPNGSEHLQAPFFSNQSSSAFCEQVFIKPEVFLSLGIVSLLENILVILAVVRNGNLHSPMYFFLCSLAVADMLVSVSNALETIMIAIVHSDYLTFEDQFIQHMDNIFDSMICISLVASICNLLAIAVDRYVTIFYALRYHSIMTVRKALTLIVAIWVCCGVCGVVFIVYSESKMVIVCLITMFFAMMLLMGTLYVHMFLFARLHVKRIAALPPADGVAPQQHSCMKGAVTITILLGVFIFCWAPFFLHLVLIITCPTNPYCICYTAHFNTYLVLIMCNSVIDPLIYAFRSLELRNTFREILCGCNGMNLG

human MC4R receptor [1] = target: T1, human MC4R receptor (human, UniProt P32245 1-332)
T1 sequence (P32245 whole entry): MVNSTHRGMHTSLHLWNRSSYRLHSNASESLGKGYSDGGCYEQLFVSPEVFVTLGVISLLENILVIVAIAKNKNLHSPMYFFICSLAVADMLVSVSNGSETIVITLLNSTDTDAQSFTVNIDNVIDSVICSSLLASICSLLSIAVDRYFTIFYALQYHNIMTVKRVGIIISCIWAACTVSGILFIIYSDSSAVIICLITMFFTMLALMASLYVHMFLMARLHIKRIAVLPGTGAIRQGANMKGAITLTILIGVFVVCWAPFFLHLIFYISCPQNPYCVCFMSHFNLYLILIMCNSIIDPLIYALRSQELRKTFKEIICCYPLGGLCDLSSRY

human MC4R receptor [2] = target: T1, human MC4R receptor; remark: listed apart in the source

% max activation (human MC3R) [%]	cAMP EC50 (human MC3R) [nM]	% max activation (human MC4R receptor [1]) [%]	cAMP EC50 (human MC4R receptor [1]) [nM]	MC4R selectivity vs MC1R (human MC4R receptor [2])	MC4R selectivity vs MC3R (human MC4R receptor [2])	Binder
20	43	79	72	0.83	0.61	Ac-RC[dA]R[d(αMeF)]R[dW]C-NH2 (disulfide 2-8; SMILES CC(=O)N[C@@H](CCCNC(=N)N)C(=O)N[C@H]1CSSC[C@@H](C(N)=O)NC(=O)[C@@H](Cc2c[nH]c3ccccc23)NC(=O)[C@H](CCCNC(=N)N)NC(=O)[C@@](C)(Cc2ccccc2)NC(=O)[C@H](CCCNC(=N)N)NC(=O)[C@@H](C)NC1=O) [CTX-1279]
55	27	68	13	0.26	2.14	Ac-R[Nle]CR[dTyr(4-OMe)″]R[dW]C-NH2 (disulfide 3-8; SMILES CCCC[C@H](NC(=O)[C@H](CCCNC(=N)N)NC(C)=O)C(=O)N[C@H]1CSSC[C@@H](C(N)=O)NC(=O)[C@@H](Cc2c[nH]c3ccccc23)NC(=O)[C@H](CCCNC(=N)N)NC(=O)[C@@H](Cc2ccc(OC)cc2)NC(=O)[C@H](CCCNC(=N)N)NC1=O) [CTX-1615]
1	29	1.4	12		2.45	Ac-RC[dA]P[d2Nal]RWC-NH2 (disulfide 2-8; SMILES CC(=O)N[C@@H](CCCNC(=N)N)C(=O)N[C@H]1CSSC[C@@H](C(N)=O)NC(=O)[C@H](Cc2c[nH]c3ccccc23)NC(=O)[C@H](CCCNC(=N)N)NC(=O)[C@@H](Cc2ccc3ccccc3c2)NC(=O)[C@@H]2CCCN2C(=O)[C@@H](C)NC1=O) [CTX-2203]
5.4	164	77	1400	0.19	0.12	Ac-RC[dA]R[dW]RWC-NH2 (disulfide 2-8; SMILES CC(=O)N[C@@H](CCCNC(=N)N)C(=O)N[C@H]1CSSC[C@@H](C(N)=O)NC(=O)[C@H](Cc2c[nH]c3ccccc23)NC(=O)[C@H](CCCNC(=N)N)NC(=O)[C@@H](Cc2c[nH]c3ccccc23)NC(=O)[C@H](CCCNC(=N)N)NC(=O)[C@@H](C)NC1=O) [CTX-1274]
0.2	11	13	58		0.19	Ac-RC[dA]P[dPhe(4-Br)]RWC-NH2 (disulfide 2-8; SMILES CC(=O)N[C@@H](CCCNC(=N)N)C(=O)N[C@H]1CSSC[C@@H](C(N)=O)NC(=O)[C@H](Cc2c[nH]c3ccccc23)NC(=O)[C@H](CCCNC(=N)N)NC(=O)[C@@H](Cc2ccc(Br)cc2)NC(=O)[C@@H]2CCCN2C(=O)[C@@H](C)NC1=O) [CTX-2204]
13	18	88	8	0.2	2.12	Ac-RC[dA]R[dPhe(4-Br)]RWC-NH2 (disulfide 2-8) [CTX-2205]
16	117	95	72	2.9	1.63	Ac-RC[Aib]R[dF][Cit][dW]C-NH2 (disulfide 2-8) [CTX-1271]
0.9	671	5.3	750	0.21	0.9	Ac-RC[dA]R[dNMeF]R[dW]C-NH2 (disulfide 2-8; SMILES CC(=O)N[C@@H](CCCNC(=N)N)C(=O)N[C@H]1CSSC[C@@H](C(N)=O)NC(=O)[C@@H](Cc2c[nH]c3ccccc23)NC(=O)[C@H](CCCNC(=N)N)NC(=O)[C@@H](Cc2ccccc2)N(C)C(=O)[C@H](CCCNC(=N)N)NC(=O)[C@@H](C)NC1=O) [CTX-1272]
7.8	719	55	5860	0.03	0.12	Ac-RC[dA]R[dF][dR][dW]C-NH2 (disulfide 2-8; SMILES CC(=O)N[C@@H](CCCNC(=N)N)C(=O)N[C@H]1CSSC[C@@H](C(N)=O)NC(=O)[C@@H](Cc2c[nH]c3ccccc23)NC(=O)[C@@H](CCCNC(=N)N)NC(=O)[C@@H](Cc2ccccc2)NC(=O)[C@H](CCCNC(=N)N)NC(=O)[C@@H](C)NC1=O) [CTX-1283]
	> 10000	58	142	> 70	> 70	Ac-RC[Aib][Cit][dTyr(4-OMe)″]R[dW]C-NH2 (disulfide 2-8) [CTX-1600]
28	3.2	41	1.7	0.08	1.89	Ac-R[Nle]CR[dTyr(4-OMe)″]RWC-NH2 (disulfide 3-8; SMILES CCCC[C@H](NC(=O)[C@H](CCCNC(=N)N)NC(C)=O)C(=O)N[C@H]1CSSC[C@@H](C(N)=O)NC(=O)[C@H](Cc2c[nH]c3ccccc23)NC(=O)[C@H](CCCNC(=N)N)NC(=O)[C@@H](Cc2ccc(OC)cc2)NC(=O)[C@H](CCCNC(=N)N)NC1=O) [CTX-1614]
2.6	541	4	438	0.1	1.24	Ac-RC[dA]R[dDip]R[dW]C-NH2 (disulfide 2-8) [CTX-1280]
4.2	545	72	1420	0.14	0.38	Ac-RC[dA]R[dF][dR]WC-NH2 (disulfide 2-8; SMILES CC(=O)N[C@@H](CCCNC(=N)N)C(=O)N[C@H]1CSSC[C@@H](C(N)=O)NC(=O)[C@H](Cc2c[nH]c3ccccc23)NC(=O)[C@@H](CCCNC(=N)N)NC(=O)[C@@H](Cc2ccccc2)NC(=O)[C@H](CCCNC(=N)N)NC(=O)[C@@H](C)NC1=O) [CTX-1282]
27	10	100	3.4	3.72	3.09	Ac-CGR[dPhe(4-Br)]RFC-NH2 (disulfide 1-7) [CTX-1640]
3.7	4780	32	7430	0.05	0.64	Ac-RC[dA]R[dTic]R[dW]C-NH2 (disulfide 2-8) [CTX-1273]
22	52	104	44	0.28	1.18	Ac-CGR[dTyr(4-OMe)]RFC-NH2 (disulfide 1-7; SMILES COc1ccc(C[C@H]2NC(=O)[C@H](CCCNC(=N)N)NC(=O)CNC(=O)[C@@H](NC(C)=O)CSSC[C@@H](C(N)=O)NC(=O)[C@H](Cc3ccccc3)NC(=O)[C@H](CCCNC(=N)N)NC2=O)cc1) [CTX-1641]
